# doi:10.1101/2025.09.29.679115
# B1: WIND1 promoter probe (dsDNA)
# DNA 1: AATCCCTCCCTAAACCTCTAGAGAGTTCTATTAATTTTTG
# DNA 2: CAAAAATTAATAGAACTCTCTAGAGGTTTAGGGAGGGATT
# B2: WIND1_m probe (dsDNA)
# DNA 1: AATCCCTCCCTAAACCTCTATGGGACCTTATTAATTTTTG
# DNA 2: CAAAAATTAATAAGGTCCCATAGAGGTTTAGGGAGGGATT
# B3: WIND1 unlabelled competitor (dsDNA)
# DNA 1: B1 DNA 1
# DNA 2: B1 DNA 2
# B4: ZAT6 promoter probe (dsDNA)
# DNA 1: AATTCTTATCACTTAAGAATATTCTAGAGAGCTCTCACTT
# DNA 2: AAGTGAGAGCTCTCTAGAATATTCTTAAGTGATAAGAATT
# Assays:
# [1] = target: T1, MBP-HSFA1d (Arabidopsis thaliana, UniProt Q9LQM7 1-485); assay: EMSA
# T1 sequence (Q9LQM7 whole entry): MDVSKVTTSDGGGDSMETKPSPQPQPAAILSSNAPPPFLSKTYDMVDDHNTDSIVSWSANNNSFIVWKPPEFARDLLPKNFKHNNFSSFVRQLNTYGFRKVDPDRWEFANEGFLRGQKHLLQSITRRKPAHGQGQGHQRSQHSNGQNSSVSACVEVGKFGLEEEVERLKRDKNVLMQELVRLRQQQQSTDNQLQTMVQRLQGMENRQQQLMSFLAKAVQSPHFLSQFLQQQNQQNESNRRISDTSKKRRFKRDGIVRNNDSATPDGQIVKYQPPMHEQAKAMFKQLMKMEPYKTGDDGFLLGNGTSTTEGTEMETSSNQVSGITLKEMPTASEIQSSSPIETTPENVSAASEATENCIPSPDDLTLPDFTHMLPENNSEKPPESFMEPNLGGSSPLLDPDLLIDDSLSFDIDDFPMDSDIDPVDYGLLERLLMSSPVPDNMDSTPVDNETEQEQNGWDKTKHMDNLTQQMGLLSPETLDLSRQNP
# [2] = target: T1, MBP-HSFA1d; assay: competition
Binder,binding result [1],binding result [2]
B1,binds,–
B2,no binding,–
B3,–,binds
B4,binds,–
